Sequences and labels used below:
B1: Cs4CL promoter probe mutant (dsDNA)
DNA 1: TTAACTGCTCTAGACACACCCA
DNA 2: TGGGTGTGTCTAGAGCAGTTAA
B2: CsCHS promoter probe mutant (dsDNA)
DNA 1: TTGATTTCTAGAACCCCCATTG
DNA 2: CAATGGGGGTTCTAGAAATCAA
B3: Cs4CL promoter probe WT (dsDNA)
DNA 1: TTAACTGCACCTACCACACCCA
DNA 2: TGGGTGTGGTAGGTGCAGTTAA
B4: SlFLS promoter probe WT (dsDNA)
DNA 1: CTTATATCACCTACTCAACTTA
DNA 2: TAAGTTGAGTAGGTGATATAAG
B5: SlFLS promoter probe mutant (dsDNA)
DNA 1: CTTATATCGTCGACTCAACTTA
DNA 2: TAAGTTGAGTCGACGATATAAG
B6: CsCHS promoter probe WT (dsDNA)
DNA 1: TTGATTTAACCTACCCCCATTG
DNA 2: CAATGGGGGTAGGTTAAATCAA

CsMYBF1, sequence (A0A125SL50 entry or part of it): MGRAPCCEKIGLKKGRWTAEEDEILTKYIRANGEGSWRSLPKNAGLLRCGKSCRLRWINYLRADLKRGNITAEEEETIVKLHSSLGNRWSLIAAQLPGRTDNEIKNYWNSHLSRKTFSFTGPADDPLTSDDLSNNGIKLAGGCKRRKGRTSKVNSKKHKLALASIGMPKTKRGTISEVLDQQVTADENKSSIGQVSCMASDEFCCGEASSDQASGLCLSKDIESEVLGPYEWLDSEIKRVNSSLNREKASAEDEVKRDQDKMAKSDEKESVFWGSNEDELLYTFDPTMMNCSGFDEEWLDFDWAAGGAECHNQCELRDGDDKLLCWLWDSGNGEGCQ

This series concerns the target CsMYBF1 (Citrus, UniProt A0A125SL50 1-337). Briefly: EMSA; 0.1% Nonidet P-40, 1 mM benzamidine, 0.5 mM PMSF, 0.5 mM DTT, 50 ug/mL BSA, 100 ng/uL poly(dI-dC), 5 uM Cy3 probe, 1 ug protein in 20 uL, 4 C 2 h; 6% PAGE in 0.5x TBE at 4 C; salt and pH not stated. To be noted: protein: recombinant; tags: His (pET28a); label: Cy3.
As for B1, the binding result is given as “no binding”.
Turning to B2, the binding result is reported as “no binding”.
To B3 belongs “binds”.
Take B4: the binding result is “binds”.
Take B5: the binding result is given as “no binding”.
B6: the binding result is reported as “binds”.

The values above are taken from PMC4861916, “Characterization of a Citrus R2R3-MYB Transcription Factor that Regulates the Flavonol and Hydroxycinnamic Acid Biosynthesis”.
